# Experimental data from patent US20240209100A1 (DIAGONAL THERAPEUTICS, published 2024).
# B1: DGL076 (bispecific antibody, V domains shown)
# V domain 1: QVQLQESGGGLVQPGGSLRLSCAASGNIFRATGMGWYRQAPGKWRELVARISSTGSPNYVDFVKGRFTISRDNAKNTLYLQMNSLKPDDTAVYYCNTVGTTLFAWGQGTQVTVSS
# V domain 2: EVQLVESGGGVAQAGGSLRLSCAASITSFSLNTMGYYRQLPGKQRELVAVESSSGITNYADSVKGRFTISRDGAKNTVFLQMNSLTPEDTAVYYCGGKLFGRDFWGQGTQVTVSS
# B2: DGL077 (bispecific antibody, V domains shown)
# V domain 1: QVQLQESGGGLVQPGGSLRLSCAASGSIFSTKGLGWYRQAPGEQRELVAGISSAGWIFYTQSVKGRFTMSRDNAKNTVYLQMNSLKPEDTAVYYCNSAQSGVPLRSWGQGTQVTVAS
# V domain 2: EVQLVESGGGVAQAGGSLRLSCAASITSFSLNTMGYYRQLPGKQRELVAVESSSGITNYADSVKGRFTISRDGAKNTVFLQMNSLTPEDTAVYYCGGKLFGRDFWGQGTQVTVSS
# B3: DGL079 (bispecific antibody, V domains shown)
# V domain 1: EVQLVESGGGLVQAGGSLRLSCAASGRTFSNYDMGWFRQAPEKEREFVAVISGPGGIAFYGDSVKGRFTISRDNTKNTVYLQMNRLKSEDTAVYYCAAAPRGSYYRRTNSYDYWGQGTQVTVSS
# V domain 2: EVQLVESGGGVAQAGGSLRLSCAASITSFSLNTMGYYRQLPGKQRELVAVESSSGITNYADSVKGRFTISRDGAKNTVFLQMNSLTPEDTAVYYCGGKLFGRDFWGQGTQVTVSS
# B4: DGL078 (bispecific antibody, V domains shown)
# V domain 1: QVQLQESGGGLVQAGGSLRLSCIVSGSIVRIDFMGWYRQAPGKKRDMVATITTGGSTNYADSVKDRFTISRDNAKNTLSLQVNDLKPEDTAVYYCNSVVHTTSRPPVLYWGQGTQVTVSS
# V domain 2: EVQLVESGGGVAQAGGSLRLSCAASITSFSLNTMGYYRQLPGKQRELVAVESSSGITNYADSVKGRFTISRDGAKNTVFLQMNSLTPEDTAVYYCGGKLFGRDFWGQGTQVTVSS
# B5: DGL322 (bispecific antibody, V domains shown)
# V domain 1: QVQLVESGGGLVQAGGSLRLSCAASGRTFSSYTMGWFRQAPGKEREFVAAISWSAGRTYYADSVKGRFTISRDNAKNTVYLQMNSLKPEDTAVYFCAAEEAPDWAPIDCSGYGCLSLYDYWGQGTQVTVSS
# V domain 2: QLQLVESGGGLVQAGGSLRLSCAASRSITFSHNVMGWYRQAPGKQRELVASIGSGGSTNYVDSVKGRATISRDNAKKTVYLQMNSLKPEDTAVYYCGVVVGVYRGSLGQGTQVTVSS
# B6: DGL052 (bispecific antibody, V domains shown)
# V domain 1: QVQLQESGGGLVQPGGSLRLSCAASGFIFSNWYMRWVRQAPGEGLEWVSSINSGGDDTDYADSVKGRFTISRDNAKGTLYLQMHSLKPEDTALYYCERGADRVRGQGTQVTVSS
# V domain 2: QVQLVESGGDLVLPGGSLKLSCEASGSISSRNSMAWYRRAPGKQRELVAAISSISSGGRTDYADFVKGRFTIFRDTAKNMVYLQMNNLKPEDTAVYDCDDPIRVASLAYDDWGQGTQVTVSS
# B7: DGL323 (bispecific antibody, V domains shown)
# V domain 1: QVQLQESGGGLVQPGGSLRLSCAASGFIFSNWYMRWVRQAPGEGLEWVSSINSGGDDTDYADSVKGRFTISRDNAKGTLYLQMHSLKPEDTALYYCERGADRVRGQGTQVTVSS
# V domain 2: QLQLVESGGGLVQAGGSLRLSCAASRSITFSHNVMGWYRQAPGKQRELVASIGSGGSTNYVDSVKGRATISRDNAKKTVYLQMNSLKPEDTAVYYCGVVVGVYRGSLGQGTQVTVSS
# B8: DGL060 (bispecific antibody, V domains shown)
# V domain 1: EVQLVESGGGLVQPGGSLRLSCAASGSIFSINAMGWYRQAPGKQREVVATSTGGGMTNYADSVKGRFTISRDNAKNTVYLQMNSLKPEDTAVYYCNADKDPFFPGDYWGQGTQVTVSS
# V domain 2: QVQLQESGGGLVQPGGSLGLSCAASGIKISVNSMAWYRQAPGERREMVAVISSGGSAVYADSVKGRFTISRDNAKNMVYLQMNSLKPEDTAVYYCHPGSAAYRDYWGQGTQVTVSS
# B9: DGL068 (bispecific antibody, V domains shown)
# V domain 1: EVQLVESGGGLVQPGGSLRLSCAASGSIFSINAMGWYRQAPGKQREVVATSTGGGMTNYADSVKGRFTISRDNAKNTVYLQMNSLKPEDTAVYYCNADKDPFFPGDYWGQGTQVTVSS
# V domain 2: QVQLVESGGGLVQAGGSLRLSCVASGTFFQIHVMGWYRQAPGKQRELVAFIINNGGTRYADSVKGRFTISRDYAKNTVYLQMNSLKPEDTAVYYCNTEGTYRGRYSTDNWGQGTQVTVSS
# B10: DGL075 (bispecific antibody, V domains shown)
# V domain 1: EVQLVESGGGLVQPGGSLRLSCAASGSIFSINAMGWYRQAPGKQREVVATSTGGGMTNYADSVKGRFTISRDNAKNTVYLQMNSLKPEDTAVYYCNADKDPFFPGDYWGQGTQVTVSS
# V domain 2: EVQLVESGGGVAQAGGSLRLSCAASITSFSLNTMGYYRQLPGKQRELVAVESSSGITNYADSVKGRFTISRDGAKNTVFLQMNSLTPEDTAVYYCGGKLFGRDFWGQGTQVTVSS
# B11: DGL063 (bispecific antibody, V domains shown)
# V domain 1: QLQLVESGGGLVQPGGSLRLSCAASGKIFSINIMDWYRQAPGKERELVARISPGDIITYANDVKGRFTISRNNAKNTVYLQMNSLKPEDTAVYYCRWRQGAGDYWGRGTQVTVSS
# V domain 2: QVQLQESGGGLVQPGGSLGLSCAASGIKISVNSMAWYRQAPGERREMVAVISSGGSAVYADSVKGRFTISRDNAKNMVYLQMNSLKPEDTAVYYCHPGSAAYRDYWGQGTQVTVSS
# B12: DGL082 (bispecific antibody, V domains shown)
# V domain 1: EVQLVESGGGLVQPGGSLRLSCAASGSIFSINAMGWYRQAPGKQREVVATSTGGGMTNYADSVKGRFTISRDNAKNTVYLQMNSLKPEDTAVYYCNADKDPFFPGDYWGQGTQVTVSS
# V domain 2: QVQLVESGGGLVQAGGSLRLSCAASGRSVSENDVRWYRQAPRKQREWVAAITSSGITGYADSVRIRFTISRDLAKNTVYLQMNSLKPEDTAVYYCYMTDQYWGQGTQVTVSS
# B13: DGL061 (bispecific antibody, V domains shown)
# V domain 1: QVQLQESGGGLVQPGGSLRLSCAASGNIFRATGMGWYRQAPGKWRELVARISSTGSPNYVDFVKGRFTISRDNAKNTLYLQMNSLKPDDTAVYYCNTVGTTLFAWGQGTQVTVSS
# V domain 2: QVQLQESGGGLVQPGGSLGLSCAASGIKISVNSMAWYRQAPGERREMVAVISSGGSAVYADSVKGRFTISRDNAKNMVYLQMNSLKPEDTAVYYCHPGSAAYRDYWGQGTQVTVSS
# B14: DGL062 (bispecific antibody, V domains shown)
# V domain 1: QVQLQESGGGLVQPGGSLRLSCAASGSIFSTKGLGWYRQAPGEQRELVAGISSAGWIFYTQSVKGRFTMSRDNAKNTVYLQMNSLKPEDTAVYYCNSAQSGVPLRSWGQGTQVTVAS
# V domain 2: QVQLQESGGGLVQPGGSLGLSCAASGIKISVNSMAWYRQAPGERREMVAVISSGGSAVYADSVKGRFTISRDNAKNMVYLQMNSLKPEDTAVYYCHPGSAAYRDYWGQGTQVTVSS
# B15: DGL090 (bispecific antibody, V domains shown)
# V domain 1: EVQLVESGGGLVQPGGSLRLSCAASGFFLDDYVLGWFRQAPGKPREGVSCISSRGRYLNYAETVKGRFTISRSNAKNTVYLQMNNLEPEDTAVYYCAAVRRVSEVCKLAEDDFASWGQGTQVTVSS
# V domain 2: QVQLQESGGGLVQAGGSLKLSCQASGLTFKRNTMGWFRQAPGKEREFVAHFLWTGGETDYADAVKGRFTISRDNAKNTVYLQMNSLKPEDTAVYFCAANYAGYRIDGYQYWGQGTQVTVSS
# B16: DGL091 (bispecific antibody, V domains shown)
# V domain 1: QVQLVESGGGLVQAGGSLRLSCAASGRTFSKHAMGWFRQAPGKEREFVAAIDWSGGSTYYADSVKGRFTISRDNAKNTVYLQMDSLKPEDTAVYYCAADSYTDYAQLWLPELESEYDYWGQGTQVTVSS
# V domain 2: QVQLVESGGGLVQAGDSLRLSCVASERTFSSYTMGWFRQAPGKEREFTAALSWWNGGISTAYADSVKGRFTISRDNAKNTVYLQMNSLKTEDTALYYCAAARDRMPRADEYDYWGQGTQVTVSS
# What was measured:
# [1] = biological target: T1, IL-18 receptor (IL-18Rα/IL-18Rβ) overexpressed on HEK-Blue IL-18 cells (Homo sapiens (Human), UniProt Q13478 19-541; O95256 20-599); experiment: cell-based or functional assay
# T1 sequence 1: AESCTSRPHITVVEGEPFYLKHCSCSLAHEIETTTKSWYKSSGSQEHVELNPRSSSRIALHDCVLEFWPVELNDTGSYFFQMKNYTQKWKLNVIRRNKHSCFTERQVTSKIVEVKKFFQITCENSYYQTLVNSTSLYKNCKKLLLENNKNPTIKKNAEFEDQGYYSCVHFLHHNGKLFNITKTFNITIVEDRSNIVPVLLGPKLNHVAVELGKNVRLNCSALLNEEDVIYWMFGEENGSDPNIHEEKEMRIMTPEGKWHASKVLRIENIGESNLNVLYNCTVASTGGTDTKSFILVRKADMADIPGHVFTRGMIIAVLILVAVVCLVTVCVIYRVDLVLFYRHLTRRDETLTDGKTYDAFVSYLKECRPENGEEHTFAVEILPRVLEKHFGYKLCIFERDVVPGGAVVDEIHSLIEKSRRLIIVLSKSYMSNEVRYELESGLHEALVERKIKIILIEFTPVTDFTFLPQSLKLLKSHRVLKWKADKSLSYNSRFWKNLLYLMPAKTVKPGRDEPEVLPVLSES
# T1 sequence 2: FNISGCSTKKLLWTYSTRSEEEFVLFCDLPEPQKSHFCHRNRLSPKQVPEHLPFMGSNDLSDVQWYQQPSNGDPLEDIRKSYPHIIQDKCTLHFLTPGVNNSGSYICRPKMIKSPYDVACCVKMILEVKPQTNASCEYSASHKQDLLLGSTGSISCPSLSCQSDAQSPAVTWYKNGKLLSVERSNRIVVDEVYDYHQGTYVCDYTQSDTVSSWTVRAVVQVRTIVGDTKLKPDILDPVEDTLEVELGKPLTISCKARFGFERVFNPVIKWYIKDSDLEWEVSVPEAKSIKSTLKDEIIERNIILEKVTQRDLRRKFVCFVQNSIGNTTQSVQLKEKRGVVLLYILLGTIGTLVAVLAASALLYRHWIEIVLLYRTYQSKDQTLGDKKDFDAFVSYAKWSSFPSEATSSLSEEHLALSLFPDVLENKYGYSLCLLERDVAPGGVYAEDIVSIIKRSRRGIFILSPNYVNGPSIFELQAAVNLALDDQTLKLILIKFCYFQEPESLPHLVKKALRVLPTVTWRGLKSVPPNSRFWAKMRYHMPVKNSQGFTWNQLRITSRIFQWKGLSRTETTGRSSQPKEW
# [2] = biological target: T1, IL-18 receptor (IL-18Rα/IL-18Rβ) …; experiment: cell-based or functional assay; remark: listed apart in the source
Binder,HEK-Blue IL-18: Abs405 (Emax) [1] [Abs],HEK-Blue IL-18: EC50 [1] [nM],HEK-Blue IL-18: Abs 405 [2] [Abs],HEK-Blue IL-18: Fold over Background [2] [fold]
B1,0.49,0.0066,–,–
B2,0.6,0.0054,–,–
B3,0.32,0.017,–,–
B4,0.65,0.024,–,–
B5,–,–,0.74,3.2
B6,1.03,0.0041,–,–
B7,–,–,0.42,1.8
B8,0.6,0.028,–,–
B9,0.36,0.018,–,–
B10,0.81,0.028,–,–
B11,0.6,0.014,–,–
B12,0.47,0.012,–,–
B13,0.47,0.0063,–,–
B14,0.88,0.0034,–,–
B15,0.26,0.033,–,–
B16,0.35,0.032,–,–
